The record followed here is publication PMC9531584 (Nature structural & molecular biology, 2022).

B1: Torpedo californica muscle-type nicotinic acetylcholine receptor α subunit (natural protein, UniProt P02710 25-461, looked up)
chain: SEHETRLVANLLENYNKVIRPVEHHTHFVDITVGLQLIQLISVDEVNQIVETNVRLRQQWIDVRLRWNPADYGGIKKIRLPSDDVWLPDLVLYNNADGDFAIVHMTKLLLDYTGKIMWTPPAIFKSYCEIIVTHFPFDQQNCTMKLGIWTYDGTKVSISPESDRPDLSTFMESGEWVMKDYRGWKHWVYYTCCPDTPYLDITYHFIMQRIPLYFVVNVIIPCLLFSFLTGLVFYLPTDSGEKMTLSISVLLSLTVFLLVIVELIPSTSSAVPLIGKYMLFTMIFVISSIIITVVVINTHHRSPSTHTMPQWVRKIFIDTIPNVMFFSTMKRASKEKQENKIFADDIDISDISGKQVTGEVIFQTPLIKNPDVKSAIEGVKYIAEHMKSDEESSNAAEEWKYVAMVIDHILLCVFMLICIIGTVSVFAGRLIELSQEG
B2: Torpedo californica muscle-type nicotinic acetylcholine receptor β subunit (natural protein, UniProt P02712 25-493, looked up)
chain: SVMEDTLLSVLFETYNPKVRPAQTVGDKVTVRVGLTLTNLLILNEKIEEMTTNVFLNLAWTDYRLQWDPAAYEGIKDLRIPSSDVWQPDIVLMNNNDGSFEITLHVNVLVQHTGAVSWQPSAIYRSSCTIKVMYFPFDWQNCTMVFKSYTYDTSEVTLQHALDAKGEREVKEIVINKDAFTENGQWSIEHKPSRKNWRSDDPSYEDVTFYLIIQRKPLFYIVYTIIPCILISILAILVFYLPPDAGEKMSLSISALLAVTVFLLLLADKVPETSLSVPIIIRYLMFIMILVAFSVILSVVVLNLHHRSPNTHTMPNWIRQIFIETLPPFLWIQRPVTTPSPDSKPTIISRANDEYFIRKPAGDFVCPVDNARVAVQPERLFSEMKWHLNGLTQPVTLPQDLKEAVEAIKYIAEQLESASEFDDLKKDWQYVAMVADRLFLYVFFVICSIGTFSIFLDASHNVPPDNPFA

Assay [1] addresses B2. As to the kind of experiment: cryo-EM structure.
Assay [2] has as its target T1, Torpedo californica muscle-type nicotinic acetylcholine receptor δ subunit (Torpedo californica (Tetronarce …, UniProt P02718 22-522)).
T1 sequence (looked up): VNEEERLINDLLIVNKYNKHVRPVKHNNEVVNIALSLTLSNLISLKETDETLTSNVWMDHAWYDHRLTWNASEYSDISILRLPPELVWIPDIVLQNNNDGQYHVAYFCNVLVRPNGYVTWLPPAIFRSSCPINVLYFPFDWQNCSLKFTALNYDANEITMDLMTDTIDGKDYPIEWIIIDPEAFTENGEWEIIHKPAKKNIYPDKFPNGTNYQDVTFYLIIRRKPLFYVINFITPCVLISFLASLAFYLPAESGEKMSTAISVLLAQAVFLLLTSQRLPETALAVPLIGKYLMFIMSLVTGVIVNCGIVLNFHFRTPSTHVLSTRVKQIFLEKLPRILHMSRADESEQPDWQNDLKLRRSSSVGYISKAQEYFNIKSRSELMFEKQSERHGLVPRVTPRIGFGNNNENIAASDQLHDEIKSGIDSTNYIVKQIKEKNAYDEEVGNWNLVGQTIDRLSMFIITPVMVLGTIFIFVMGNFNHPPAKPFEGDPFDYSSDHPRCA
The experiment in a line: cryo-EM structure.

Take B1: the binding result in assay [1] is “binds”.
Consider B2, for which, in assay [2], the binding result is “binds”.
